This note sets out measurements from doi:10.1101/2025.06.10.658867 (bioRxiv, 2025).

For orientation: Kd means the free concentration of one partner at which half of the binding sites on the other are occupied at equilibrium, for simple one-to-one binding. A low value points to higher affinity.

Data set [1] concerns the molecule itself. In words: DNA-PAINT super-resolution microscopy with nearest-neighbour distance analysis.
The target of data set [2] is Siglec-10_(d1-d2) WT fused to human IgG1 Fc (Siglec-10Fc WT) (human, UniProt Q96LC7). In words: BLI. In general terms: BLI is a label-free optical method that tracks binding on a fibre tip over time.

B1: intracellularly GFP-tagged Siglec-10 R127A in THP-1 cells (receptor, human, UniProt Q96LC7 17-697, looked up)
chain: MDGRFWIRVQESVMVPEGLCISVPCSFSYPRQDWTGSTPAYGYWFKAVTETTKGAPVATNHQSREVEMSTRGRFQLTGDPAKGNCSLVIRDAQMQDESQYFFRVERGSYVAYNFMNDGFFLKVTALTQKPDVYIPETLEPGQPVTVICVFNWAFEECPPPSFSWTGAALSSQGTKPTTSHFSVLSFTPRPQDHNTDLTCHVDFSRKGVSAQRTVRLRVAYAPRDLVISISRDNTPALEPQPQGNVPYLEAQKGQFLRLLCAADSQPPATLSWVLQNRVLSSSHPWGPRPLGLELPGVKAGDSGRYTCRAENRLGSQQRALDLSVQYPPENLRVMVSQANRTVLENLGNGTSLPVLEGQSLCLVCVTHSSPPARLSWTQRGQVLSPSQPSDPGVLELPRVQVEHEGEFTCHARHPLGSQHVSLSLSVHYSPKLLGPSCSWEAEGLHCSCSSQASPAPSLRWWLGEELLEGNSSQDSFEVTPSSAGPWANSSLSLHGGLSSGLRLRCEAWNVHGAQSGSILQLPDKKGLISTAFSNGAFLGIGITALLFLCLALIIMKILPKRRTQTETPRPRFSRHSTILDYINVVPTAGPLAQKRNQKATPNSPRTPLPPGAPSPESKKNQKKQYQLPSFPEPKSSTQAPESQESQEELHYATLNFPGVRPRPEARMPKGTQADYAEVKFQ
Consider B1, for which, in data set [1], the “mean percent dimers after tunicamycin” value was determined as 69%, the “mean percent dimers before tunicamycin” value was 59% and the percent dimers is 47%.

B2: intracellularly GFP-tagged Siglec-10 WT in THP-1 cells (receptor, human, UniProt Q96LC7 17-697, looked up)
chain: MDGRFWIRVQESVMVPEGLCISVPCSFSYPRQDWTGSTPAYGYWFKAVTETTKGAPVATNHQSREVEMSTRGRFQLTGDPAKGNCSLVIRDAQMQDESQYFFRVERGSYVRYNFMNDGFFLKVTALTQKPDVYIPETLEPGQPVTVICVFNWAFEECPPPSFSWTGAALSSQGTKPTTSHFSVLSFTPRPQDHNTDLTCHVDFSRKGVSAQRTVRLRVAYAPRDLVISISRDNTPALEPQPQGNVPYLEAQKGQFLRLLCAADSQPPATLSWVLQNRVLSSSHPWGPRPLGLELPGVKAGDSGRYTCRAENRLGSQQRALDLSVQYPPENLRVMVSQANRTVLENLGNGTSLPVLEGQSLCLVCVTHSSPPARLSWTQRGQVLSPSQPSDPGVLELPRVQVEHEGEFTCHARHPLGSQHVSLSLSVHYSPKLLGPSCSWEAEGLHCSCSSQASPAPSLRWWLGEELLEGNSSQDSFEVTPSSAGPWANSSLSLHGGLSSGLRLRCEAWNVHGAQSGSILQLPDKKGLISTAFSNGAFLGIGITALLFLCLALIIMKILPKRRTQTETPRPRFSRHSTILDYINVVPTAGPLAQKRNQKATPNSPRTPLPPGAPSPESKKNQKKQYQLPSFPEPKSSTQAPESQESQEELHYATLNFPGVRPRPEARMPKGTQADYAEVKFQ
For B2, in data set [1], the “mean percent dimers after tunicamycin” value turned out to be 50%, the “mean percent dimers before tunicamycin” value was 61% and the percent dimers worked out at 67%.

B3: intracellularly GFP-tagged Siglec-10 R119A in THP-1 cells (receptor, human, UniProt Q96LC7 17-697, looked up)
chain: MDGRFWIRVQESVMVPEGLCISVPCSFSYPRQDWTGSTPAYGYWFKAVTETTKGAPVATNHQSREVEMSTRGRFQLTGDPAKGNCSLVIRDAQMQDESQYFFAVERGSYVRYNFMNDGFFLKVTALTQKPDVYIPETLEPGQPVTVICVFNWAFEECPPPSFSWTGAALSSQGTKPTTSHFSVLSFTPRPQDHNTDLTCHVDFSRKGVSAQRTVRLRVAYAPRDLVISISRDNTPALEPQPQGNVPYLEAQKGQFLRLLCAADSQPPATLSWVLQNRVLSSSHPWGPRPLGLELPGVKAGDSGRYTCRAENRLGSQQRALDLSVQYPPENLRVMVSQANRTVLENLGNGTSLPVLEGQSLCLVCVTHSSPPARLSWTQRGQVLSPSQPSDPGVLELPRVQVEHEGEFTCHARHPLGSQHVSLSLSVHYSPKLLGPSCSWEAEGLHCSCSSQASPAPSLRWWLGEELLEGNSSQDSFEVTPSSAGPWANSSLSLHGGLSSGLRLRCEAWNVHGAQSGSILQLPDKKGLISTAFSNGAFLGIGITALLFLCLALIIMKILPKRRTQTETPRPRFSRHSTILDYINVVPTAGPLAQKRNQKATPNSPRTPLPPGAPSPESKKNQKKQYQLPSFPEPKSSTQAPESQESQEELHYATLNFPGVRPRPEARMPKGTQADYAEVKFQ
Consider B3, for which, in data set [1], the “mean percent dimers after tunicamycin” value is 69%, the “mean percent dimers before tunicamycin” value was 72% and the percent dimers came to 69%.

B4: Fab portion of the anti-Siglec-10 mAb S10A (S10A Fab) (Fab, V domains shown)
VH: QIQLQQSGAELEKPGASVKMSCKASGYTFTSYWMHWVKQRPGQGLEWIGYINPDTDSTEYNQKFRDKATLTADKSSSTAYMQLSSLTSEDSAVYYCARPYYRYAGYAMDYWGQGTSVTVSS
VL: DIKMTQSPSSMYASLGERVTITCKASQDINSYLSWFQQKPGKSPKTLIYRANRLVDGVPSRFSGSGSGQVYSLTISSLEYEDLGIYYCLQYDEFPWTFGGGTKLEIK
Molecule B4 showed a Kd in data set [2] of 1.1 nM.
